Test results reported in PMC10770396, “Dimerization of the 4Ig isoform of B7-H3 in tumor cells mediates enhanced proliferation and tumorigenic signaling” (Communications Biology, 2024).
Each block holds one binder with its values, some of them ahead of it.

How the values were obtained:
[1] = target: the molecule itself; assay: SEC; analytical SEC, Superdex 200 10/300, PBS + 0.1 M NaCl + 0.05% NaN3, flow 0.5 ml/min, protein at 100 μg/mL; apparent molecular weight from a calibration curve; monomer to dimer
[2] = target: T1, 4Ig-B7-H3-mEGFP (human), Q5ZPR3; assay: FRET or BRET; homo-FRET fluorescence lifetime imaging (FRET-FLIM, TCSPC) of mEGFP fusions in fixed, transiently transfected HeLa CD276-/- KO cells; bi-exponential fit; settings: remark: other sources report otherwise
T1 chain: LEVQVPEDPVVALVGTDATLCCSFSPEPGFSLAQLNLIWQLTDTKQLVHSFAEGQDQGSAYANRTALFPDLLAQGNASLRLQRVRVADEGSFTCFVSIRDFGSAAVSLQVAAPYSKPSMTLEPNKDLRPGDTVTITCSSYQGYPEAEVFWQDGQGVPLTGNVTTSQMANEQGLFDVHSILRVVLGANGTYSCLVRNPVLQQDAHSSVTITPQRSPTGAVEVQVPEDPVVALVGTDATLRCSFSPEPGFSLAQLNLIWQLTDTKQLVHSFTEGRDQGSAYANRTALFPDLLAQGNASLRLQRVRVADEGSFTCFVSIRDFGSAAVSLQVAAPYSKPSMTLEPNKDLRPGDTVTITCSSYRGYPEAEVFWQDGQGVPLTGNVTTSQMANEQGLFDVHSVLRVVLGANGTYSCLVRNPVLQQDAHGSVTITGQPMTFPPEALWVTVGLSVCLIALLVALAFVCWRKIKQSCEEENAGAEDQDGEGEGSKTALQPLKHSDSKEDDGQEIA

B1: human 4Ig-B7-H3 extracellular domain (amino acids: Gly27 – Thr461), recombinant (domain or fragment, UniProt Q5ZPR3 27-461, looked up)
chain: GALEVQVPEDPVVALVGTDATLCCSFSPEPGFSLAQLNLIWQLTDTKQLVHSFAEGQDQGSAYANRTALFPDLLAQGNASLRLQRVRVADEGSFTCFVSIRDFGSAAVSLQVAAPYSKPSMTLEPNKDLRPGDTVTITCSSYQGYPEAEVFWQDGQGVPLTGNVTTSQMANEQGLFDVHSILRVVLGANGTYSCLVRNPVLQQDAHSSVTITPQRSPTGAVEVQVPEDPVVALVGTDATLRCSFSPEPGFSLAQLNLIWQLTDTKQLVHSFTEGRDQGSAYANRTALFPDLLAQGNASLRLQRVRVADEGSFTCFVSIRDFGSAAVSLQVAAPYSKPSMTLEPNKDLRPGDTVTITCSSYRGYPEAEVFWQDGQGVPLTGNVTTSQMANEQGLFDVHSVLRVVLGANGTYSCLVRNPVLQQDAHGSVTITGQPMT
notes: B7-H3 (CD276), human, 4Ig isoform, extracellular domain, residues Gly27 – Thr461; commercial proteins of this kind often carry a C-terminal His tag (surmise); also called CD276; source: bought: R&D Systems (functionally active recombinant protein)
stoichiometry N [1]: 2

mEGFP fluorescence lifetime, bi-exponential fit, first fraction [2]: 2.57 ns | mEGFP fluorescence lifetime, bi-exponential fit, second fraction [2]: 1.33 ns
B2: 4Ig-B7-H3-mEGFP, Q5ZPR3 29-534 (natural protein)
chain: T1 chain

B3: murine 2Ig-B7-H3 extracellular domain (amino acids: Val29 – Phe244), recombinant (domain or fragment, UniProt Q8VE98 29-244, looked up)
chain: VEVQVSEDPVVALVDTDATLRCSFSPEPGFSLAQLNLIWQLTDTKQLVHSFTEGRDQGSAYSNRTALFPDLLVQGNASLRLQRVRVTDEGSYTCFVSIQDFDSAAVSLQVAAPYSKPSMTLEPNKDLRPGNMVTITCSSYQGYPEAEVFWKDGQGVPLTGNVTTSQMANERGLFDVHSVLRVVLGANGTYSCLVRNPVLQQDAHGSVTITGQPLTF
notes: B7-H3 (CD276), murine, 2Ig isoform, extracellular domain, residues Val29 – Phe244; also called murine B7-H3; source: bought: R&D Systems (functionally active recombinant protein)
stoichiometry N [1]: 2
